Patent US20140302020A1 (ALETHIA BIOTHERAPEUTICS, published 2014)
One block for each binder: values may come before it.

What was measured:
[1] = target: T1, recombinant monomeric human clusterin (human, UniProt P10909 23-449); experiment: SPR (BIAcore 3000), recombinant monomeric human clusterin amine-coupled to a CM3 chip, Fab injected
T1 construct: Tags and processing into alpha and beta chains are not described; also called recombinant human clusterin; immobilized clusterin
Description: (§1) HBST (10 mM Hepes pH 7.4, 135 mM NaCl, 3.4 mM EDTA, 0.005% Tween 20) was used as running buffer for all BIAcore experiments. Recombinant monomeric clusterin was immobilized on a CM3 chip with normal amine coupling method at a flow of 5 μl/min. Surface was activated with 35 μl of a mixture of 50 mM NHS/0.2M EDC. Clusterin in 10 mM Na-acetate pH 4.5 was injected until a desired amount was captured (below 60RU). Unreacted esters were deactivated with 35 μl of 1M ethanolamine hydrochloride-NaOH pH8.5. A control surface was prepared by injecting NHS/EDC and ethanolamine in the same manner.
(§2) Kinetics analysis was conducted at a flow of 50 μl/min. Full length antibodies (mouse or humanized) or Fab were diluted in HBST. Concentration range was from 1.953-31.25 nM for the full length antibodies and 15.625-250 nM for the Fab. Each concentration was injected over the clusterin and a control surface for 5 min followed with a 5 min dissociation wash. The clusterin surface was regenerated between each antibody injection with 50 μl of 20 mM HCl.

[2] = target: T1, recombinant monomeric human clusterin; experiment: SPR (BIAcore 3000), recombinant monomeric human clusterin amine-coupled to a CM3 chip, full length antibody injected
Description: as §1, §2

[3] = target: T1, recombinant monomeric human clusterin; experiment: SPR (BIAcore 3000), recombinant monomeric human clusterin amine-coupled to a CM3 chip, Fab injected; remark: listed apart in the source
Description: (§3) The purpose of these investigations is to determine the kinetics parameters of anti-clusterin antibodies. In particular, to determine whether the humanization of the 16B5 and 21B12 anti-clusterin monoclonal antibody affects the kinetics parameters of its binding to human clusterin. To this end, a kinetic analysis method was developed using the BIAcore 3000. Human clusterin was immobilized on a sensor chip. Full length antibodies or Fab fragments were injected and allowed to interact with the immobilized clusterin. This example described the exemplary antibody 16B5 but the 21B12 exemplary antibody was prepared and tested in a similar manner.
as §1, §2

[4] = target: T1, recombinant monomeric human clusterin; experiment: SPR (BIAcore 3000), recombinant monomeric human clusterin amine-coupled to a CM3 chip, full length antibody injected; remark: listed apart in the source
Description: as §3, §1, §2

T1 sequence (P10909 23-449 limits assumed): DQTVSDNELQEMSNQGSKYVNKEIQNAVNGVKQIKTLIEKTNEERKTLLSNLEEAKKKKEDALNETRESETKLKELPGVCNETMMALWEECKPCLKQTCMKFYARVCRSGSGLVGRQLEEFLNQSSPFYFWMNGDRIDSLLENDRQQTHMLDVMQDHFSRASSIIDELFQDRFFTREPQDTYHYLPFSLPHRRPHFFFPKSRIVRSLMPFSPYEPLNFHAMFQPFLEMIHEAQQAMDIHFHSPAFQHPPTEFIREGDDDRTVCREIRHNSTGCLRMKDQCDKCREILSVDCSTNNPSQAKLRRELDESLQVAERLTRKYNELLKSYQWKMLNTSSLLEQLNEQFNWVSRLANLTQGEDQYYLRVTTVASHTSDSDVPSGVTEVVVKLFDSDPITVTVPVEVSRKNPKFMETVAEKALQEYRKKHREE

B3: humanized 16B5 anti-clusterin antibody (full length, human IgG2) (antibody, V domains shown)
VH: QVQLVQSGAEVKKPGATVKISCKVSGFNIKDIYMHWVQQAPGKGLEWMGRIDPAYGNTKYDPKFQGRVTITADTSTDTAYMELSSLRSEDTAVYYCARRYDTAMDYWGQGTLVTVSS
VL: DIVMTQSPDSLAVSLGERATINCKSSQSLLNSRTRKNYLAWYQQKPGQPPKLLIYWASTRESGVPDRFSGSGSGTDFTLTISSLQAEDVAVYYCKQSYNLWTFGQGTKLEIKV
notes: also called h16B5; H16B5
- Kd [2]: 4.49 nM
- koff [2]: 0.0015 s⁻¹
- kon [2]: 345000 M⁻¹ s⁻¹

B4: humanized 16B5 Fab (Fab, V domains shown)
VH: QVQLVQSGAEVKKPGATVKISCKVSGFNIKDIYMHWVQQAPGKGLEWMGRIDPAYGNTKYDPKFQGRVTITADTSTDTAYMELSSLRSEDTAVYYCARRYDTAMDYWGQGTLVTVSS
VL: DIVMTQSPDSLAVSLGERATINCKSSQSLLNSRTRKNYLAWYQQKPGQPPKLLIYWASTRESGVPDRFSGSGSGTDFTLTISSLQAEDVAVYYCKQSYNLWTFGQGTKLEIK
notes: The preparation still held some F(ab')2; also called HH16B5 Fab; HH 16B5 Fab
- Kd [1]: 17.2 nM
- koff [1]: 0.0027 s⁻¹
- kon [1]: 159000 M⁻¹ s⁻¹

B5: 21B12 Fab (Fab, V domains shown)
VH: QIQLVQSGPELKKPGETVKISCKASGYTFTNYGMHWVKQAPGKGLKWMGWINTYTGEPTYADDFKGRFAFSLETSASTAYLQINNLKNEDTATYFCARDGFLYFFDYWGQGTTLTVSS
VL: DIVMSQSPSSLAVSVGEKVTMSCKSSQSLLYSSNQKNYLAWYQQRPGQSPKLLIYWASTRESGVPDRFTGSGSGTDFTLTISSVKAEDLAVYYCQQYYIYPRTFGGGTKLEIK
notes: also called mouse 21B12 Fab; Fab fragment of the murine 21B12 anti-clusterin antibody
- Kd [3]: 25.3 nM
- koff [3]: 0.00352 s⁻¹
- kon [3]: 215000 M⁻¹ s⁻¹

Second part, the binder after the results:

- Kd [1]: 41.6 nM
- koff [1]: 0.003 s⁻¹
- kon [1]: 74100 M⁻¹ s⁻¹
B1: mouse 16B5 Fab (Fab, V domains shown)
VH: EVQLQQSGAELVKPGASVRLSCTTSGFNIKDIYMHWVKQRPEQGLEWIGRIDPAYGNTKYDPKFQGKATITADTSSNTAYLQLSSLTSEDTAVYYCARRYDTAMDYWGQGTSVTVSS
VL: DIVMSQSPSSLAVSAGEKVTMSCKSSQSLLNSRTRKNYLAWYQQKPGQSPKLLIYWASTRESGVPDRFTGSGSGTDFTLTISSVQAEDLAVYYCKQSYNLWTFGGGTKLEFK
notes: also called Fab mouse antibody

- Kd [2]: 6.64 nM
- koff [2]: 0.0017 s⁻¹
- kon [2]: 329000 M⁻¹ s⁻¹
B2: mouse 16B5 anti-clusterin monoclonal antibody (full length) (antibody, V domains shown)
VH: EVQLQQSGAELVKPGASVRLSCTTSGFNIKDIYMHWVKQRPEQGLEWIGRIDPAYGNTKYDPKFQGKATITADTSSNTAYLQLSSLTSEDTAVYYCARRYDTAMDYWGQGTSVTVSS
VL: DIVMSQSPSSLAVSAGEKVTMSCKSSQSLLNSRTRKNYLAWYQQKPGQSPKLLIYWASTRESGVPDRFTGSGSGTDFTLTISSVQAEDLAVYYCKQSYNLWTFGGGTKLEFK
notes: Full-length mouse IgG purified from the original hybridoma; also called murine 16B5; hybridoma 16B5

- Kd [4]: 5.09 nM
- koff [4]: 0.0015 s⁻¹
- kon [4]: 362000 M⁻¹ s⁻¹
B6: mouse 21B12 anti-clusterin monoclonal antibody (full length) (antibody, V domains shown)
VH: QIQLVQSGPELKKPGETVKISCKASGYTFTNYGMHWVKQAPGKGLKWMGWINTYTGEPTYADDFKGRFAFSLETSASTAYLQINNLKNEDTATYFCARDGFLYFFDYWGQGTTLTVSS
VL: DIVMSQSPSSLAVSVGEKVTMSCKSSQSLLYSSNQKNYLAWYQQRPGQSPKLLIYWASTRESGVPDRFTGSGSGTDFTLTISSVKAEDLAVYYCQQYYIYPRTFGGGTKLEIK
notes: also called murine 21B12; parent mouse 21B12

- Kd [4]: 2.23 nM
- koff [4]: 0.00083 s⁻¹
- kon [4]: 374000 M⁻¹ s⁻¹
B7: humanized 21B12 anti-clusterin antibody (full length, human IgG2) (antibody, V domains shown)
VH: QVQLVQSGSELKKPGASVKVSCKASGYTFTNYGMHWVRQAPGQGLEWMGWINTYTGEPTYADDFKGRFVFSLDTSVSTAYLQISSLKAEDTAVYYCARDGFLYFFDYWGQGTLVTVSS
VL: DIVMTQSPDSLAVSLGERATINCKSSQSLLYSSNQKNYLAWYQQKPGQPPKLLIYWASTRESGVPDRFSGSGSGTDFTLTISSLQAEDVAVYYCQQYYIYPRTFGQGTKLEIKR
notes: also called HH21B12
